Experimental data from paper PMC9348906 (Science (New York, N.Y.), 2022).
Several values for one entry are separate records, joined by “and”; a condition that tells them apart may be missing. Equal values may be shown once. Read-outs that look alike come from different tables or passages of the source.

B1: NUP358^NTD (domain or fragment, human, UniProt P49792 1-752, looked up)
chain: MRRSKADVERYIASVQGSTPSPRQKSMKGFYFAKLYYEAKEYDLAKKYICTYINVQERDPKAHRFLGLLYELEENTDKAVECYRRSVELNPTQKDLVLKIAELLCKNDVTDGRAKYWLERAAKLFPGSPAIYKLKEQLLDCEGEDGWNKLFDLIQSELYVRPDDVHVNIRLVEVYRSTKRLKDAVAHCHEAERNIALRSSLEWNSCVVQTLKEYLESLQCLESDKSDWRATNTDLLLAYANLMLLTLSTRDVQESRELLQSFDSALQSVKSLGGNDELSATFLEMKGHFYMHAGSLLLKMGQHSSNVQWRALSELAALCYLIAFQVPRPKIKLIKGEAGQNLLEMMACDRLSQSGHMLLNLSRGKQDFLKEIVETFANKSGQSALYDALFSSQSPKDTSFLGSDDIGNIDVREPELEDLTRYDVGAIRAHNGSLQHLTWLGLQWNSLPALPGIRKWLKQLFHHLPHETSRLETNAPESICILDLEVFLLGVVYTSHLQLKEKCNSHHSSYQPLCLPLPVCKQLCTERQKSWWDAVCTLIHRKAVPGNVAKLRLLVQHEINTLRAQEKHGLQPALLVHWAECLQKTGSGLNSFYDQREYIGRSVHYWKKVLPLLKIIKKKNSIPEPIDPLFKHFHSVDIQASEIVEYEEDAHITFAILDAVNGNIEDAVTAFESIKSVVSYWNLALIFHRKAEDIENDALSPEEQEECKNYLRKTRDYLIKIIDDSDSNLSVVKKLPVPLESVKEMLNSVMQE
B2: NUP358^1–832 (domain or fragment, human, UniProt P49792 1-832, looked up)
chain: MRRSKADVERYIASVQGSTPSPRQKSMKGFYFAKLYYEAKEYDLAKKYICTYINVQERDPKAHRFLGLLYELEENTDKAVECYRRSVELNPTQKDLVLKIAELLCKNDVTDGRAKYWLERAAKLFPGSPAIYKLKEQLLDCEGEDGWNKLFDLIQSELYVRPDDVHVNIRLVEVYRSTKRLKDAVAHCHEAERNIALRSSLEWNSCVVQTLKEYLESLQCLESDKSDWRATNTDLLLAYANLMLLTLSTRDVQESRELLQSFDSALQSVKSLGGNDELSATFLEMKGHFYMHAGSLLLKMGQHSSNVQWRALSELAALCYLIAFQVPRPKIKLIKGEAGQNLLEMMACDRLSQSGHMLLNLSRGKQDFLKEIVETFANKSGQSALYDALFSSQSPKDTSFLGSDDIGNIDVREPELEDLTRYDVGAIRAHNGSLQHLTWLGLQWNSLPALPGIRKWLKQLFHHLPHETSRLETNAPESICILDLEVFLLGVVYTSHLQLKEKCNSHHSSYQPLCLPLPVCKQLCTERQKSWWDAVCTLIHRKAVPGNVAKLRLLVQHEINTLRAQEKHGLQPALLVHWAECLQKTGSGLNSFYDQREYIGRSVHYWKKVLPLLKIIKKKNSIPEPIDPLFKHFHSVDIQASEIVEYEEDAHITFAILDAVNGNIEDAVTAFESIKSVVSYWNLALIFHRKAEDIENDALSPEEQEECKNYLRKTRDYLIKIIDDSDSNLSVVKKLPVPLESVKEMLNSVMQELEDYSEGGPLYKNGSLRNADSEIKHSTPSPTRYSLSPSKSYKYSPKTPPRWAEDQNSLLKMICQQVEAIKKEMQELKLNS

What was measured:
Test in all cases: SEC-MALS
[1] = molecular target: C. thermophilum coat nup complex (CNC) (C. thermophilum) (UniProt G0S2X1)
C. thermophilum coat nup complex (CNC) (C. thermophilum), sequence (G0S2X1 whole entry, looked up, one chain of several): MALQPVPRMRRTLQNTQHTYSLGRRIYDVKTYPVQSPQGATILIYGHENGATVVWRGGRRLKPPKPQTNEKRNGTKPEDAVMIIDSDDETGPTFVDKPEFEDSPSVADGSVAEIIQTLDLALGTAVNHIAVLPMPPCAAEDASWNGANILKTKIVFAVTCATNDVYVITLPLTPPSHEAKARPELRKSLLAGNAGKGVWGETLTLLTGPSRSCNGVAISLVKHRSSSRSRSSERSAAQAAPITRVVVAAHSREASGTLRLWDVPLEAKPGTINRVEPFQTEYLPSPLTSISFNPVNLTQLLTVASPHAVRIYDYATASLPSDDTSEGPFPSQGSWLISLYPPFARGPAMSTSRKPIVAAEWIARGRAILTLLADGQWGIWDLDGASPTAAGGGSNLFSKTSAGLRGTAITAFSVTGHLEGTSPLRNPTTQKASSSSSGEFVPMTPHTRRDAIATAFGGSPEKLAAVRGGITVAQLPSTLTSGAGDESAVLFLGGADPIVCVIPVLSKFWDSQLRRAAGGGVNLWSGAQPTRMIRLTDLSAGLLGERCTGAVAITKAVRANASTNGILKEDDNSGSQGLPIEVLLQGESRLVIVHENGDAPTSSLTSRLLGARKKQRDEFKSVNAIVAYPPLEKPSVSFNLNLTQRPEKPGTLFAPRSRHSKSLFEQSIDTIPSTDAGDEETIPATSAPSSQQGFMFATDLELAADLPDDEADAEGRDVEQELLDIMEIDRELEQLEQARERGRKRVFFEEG

SEC-MALS [2] = molecular target: the molecule itself
SEC-MALS [3] = molecular target: the molecule itself; remark: listed apart in the source

Molecule	stoichiometry N (SEC-MALS [3])	also measured
C. thermophilum cytoplasmic filament nup complex (CFNC) (from UniProt G0S4F3 1-882; G0SBS8 1-1481; G0SBQ3 1-678; G0SAK3 1-993)	–	stoichiometry N [1]: 2
B1	–	stoichiometry N (SEC-MALS [2]): 2
RWAEDQNSLLKMICQQVEAIKKEMQELKLNS (domain or fragment, human, UniProt P49792 802-832, looked up) [NUP358^OE]	2 and 4	–
B2	4 and 5	–
